In PMC7720213, “Structure of eukaryotic DNA polymerase δ bound to the PCNA clamp while encircling DNA” (Proceedings of the National Academy of Sciences of the …, 2020):
Values belong to the binder of their own block, whether it stands above or below them.

B4: S.c. DNA polymerase δ regulatory subunit Pol31 (natural protein, S. cerevisiae)
chain: MDALLTKFNEDRSLQDENLSQPRTRVRIVDDNLYNKSNPFQLCYKKRDYGSQYYHIYQYRLKTFRERVLKECDKRWDAGFTLNGQLVLKKDKVLDIQGNQPCWCVGSIYCEMKYKPNVLDEVINDTYGAPDLTKSYTDKEGGSDEIMLEDESGRVLLVGDFIRSTPFITGVVVGILGMEAEAGTFQVLDICYPTPLPQNPFPAPIATCPTRGKIALVSGLNLNNTSPDRLLRLEILREFLMGRINNKIDDISLIGRLLICGNSVDFDIKSVNKDELMISLTEFSKFLHNILPSISVDIMPGTNDPSDKSLPQQPFHKSLFDKSLESYFNGSNKEILNLVTNPYEFSYNGVDVLAVSGKNINDICKYVIPSNDNGESENKVEEGESNDFKDDIEHRLDLMECTMKWQNIAPTAPDTLWCYPYTDKDPFVLDKWPHVYIVANQPYFGTRVVEIGGKNIKIISVPEFSSTGMIILLDLETLEAETVKIDI
notes: Pol31 (B subunit), regulatory subunit of Saccharomyces cerevisiae DNA polymerase δ; Stood in the assay as part of the three-subunit Pol δ; also called B subunit

Legend:
[1] = target: Pol31-Pol32 complex (Saccharomyces cerevisiae, UniProt P46957;P47110 1-487;1-350); test: EMSA; 5 mM Mg2+; 0-5 uM protein, 0.5 nM DNA; EMSA: 50 mM Hepes pH 7.5, 5 mM MgCl2, 50 mM NaOAc, 1 mM DTT, 6% glycerol, 90 min at room temperature; 8% native PAGE in 40 mM Tris, 150 mM glycine pH 8.0; settings: protein: recombinant; tags: GST tag removed with PreScission protease; copies: 1;1; label: 5'-32P; single strand
[2] = target: Pol delta exo- (Pol3-Pol31-Pol32);PCNA (Saccharomyces cerevisiae;Saccharomyces …, UniProt P15436;P46957;P47110;P15873 1-1097;1-487;1-350;1-258, D321S;E323S|); test: cryo-EM 3.2 A; ddTTP; 4Fe-4S cluster, Zn2+; EMSA: 50 mM Hepes pH 7.5, 5 mM MgCl2, 50 mM NaOAc, 1 mM DTT, 6% glycerol, 90 min at room temperature; 8% native PAGE in 40 mM Tris, 150 mM glycine pH 8.0; settings: protein: recombinant;recombinant; tags: ;; copies: 1;1;1;3; 25 bp, 5' overhang 13 nt on template
[3] = target: B4; test: cryo-EM structure; 8.0 uM PCNA and 6.0 uM T/P DNA mixed in Hepes-KOH pH 7.5, DTT, MgAc, KOAc, potassium glutamate, 0.4 mM ddTTP, then 3.3 uM Pol δ added; PCNA:Pol δ:T/P DNA 1.2:1:0.9; on ice 1 h; 3.2 Å map; settings: both partners purified
[4] = target: T1, S.c. DNA polymerase δ catalytic subunit Pol3 with the D321S and E323S mutations in the exonuclease active site (S. cerevisiae, UniProt P15436 1-1097, D321S | E323S); test: as above; settings: both partners purified
T1 construct: Pol3, catalytic subunit of Saccharomyces cerevisiae DNA polymerase δ; carries a 4Fe-4S cluster (CysB) and a zinc finger (CysA); Stood in the assay as part of the three-subunit Pol δ; also called catalytic subunit of Pol δ^exo-
T1 sequence: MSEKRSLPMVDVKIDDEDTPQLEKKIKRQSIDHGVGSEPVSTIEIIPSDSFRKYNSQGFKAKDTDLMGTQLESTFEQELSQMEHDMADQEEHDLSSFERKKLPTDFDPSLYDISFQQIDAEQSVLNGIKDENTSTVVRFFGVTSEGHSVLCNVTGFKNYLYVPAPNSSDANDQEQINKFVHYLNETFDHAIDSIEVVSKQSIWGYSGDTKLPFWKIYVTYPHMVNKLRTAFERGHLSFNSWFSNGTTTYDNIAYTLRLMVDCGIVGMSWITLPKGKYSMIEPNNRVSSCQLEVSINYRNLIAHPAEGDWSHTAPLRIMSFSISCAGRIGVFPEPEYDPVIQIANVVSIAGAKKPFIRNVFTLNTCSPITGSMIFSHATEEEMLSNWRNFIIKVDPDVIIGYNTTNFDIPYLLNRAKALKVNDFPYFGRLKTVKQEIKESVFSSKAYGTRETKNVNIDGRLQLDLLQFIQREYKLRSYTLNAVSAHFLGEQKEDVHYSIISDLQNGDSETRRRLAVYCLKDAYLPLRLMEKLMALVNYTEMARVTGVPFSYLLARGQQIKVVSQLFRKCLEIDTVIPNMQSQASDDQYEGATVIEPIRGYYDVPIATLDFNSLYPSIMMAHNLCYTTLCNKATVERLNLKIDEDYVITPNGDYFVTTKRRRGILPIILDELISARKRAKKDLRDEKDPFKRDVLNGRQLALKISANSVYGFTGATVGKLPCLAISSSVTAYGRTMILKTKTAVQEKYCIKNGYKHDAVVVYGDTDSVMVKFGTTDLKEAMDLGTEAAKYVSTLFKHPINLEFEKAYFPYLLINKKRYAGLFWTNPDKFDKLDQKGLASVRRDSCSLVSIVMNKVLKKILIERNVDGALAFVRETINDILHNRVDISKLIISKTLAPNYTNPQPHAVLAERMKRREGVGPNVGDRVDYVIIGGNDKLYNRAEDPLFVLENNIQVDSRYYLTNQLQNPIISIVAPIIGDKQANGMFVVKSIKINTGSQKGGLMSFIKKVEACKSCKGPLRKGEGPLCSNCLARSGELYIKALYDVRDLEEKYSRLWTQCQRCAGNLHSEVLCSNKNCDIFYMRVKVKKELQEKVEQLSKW

[5] = target: T2, S.c. DNA polymerase δ (Pol3-Pol31-Pol32) harboring the D321S and E323S mutations in the exonuclease domain of … (S. cerevisiae, UniProt P15436 1-1097; P46957 1-487; P47110 1-350, D321S | E323S); test: as above; settings: both partners purified
T2 construct: Pol3, catalytic subunit of Saccharomyces cerevisiae DNA polymerase δ; Pol31 (B subunit), regulatory subunit of Saccharomyces cerevisiae DNA polymerase δ; Pol32, regulatory subunit of Saccharomyces cerevisiae DNA polymerase δ; also called Pol δ^exo-; Pol δ; copies: + +

[6] = target: the molecule itself; test: as above

B1: 62-mer ssDNA (ssDNA)
DNA: ATGCTTAGCCTGAGGACTATTCTACTTAACGCGAGTTACGTGACGGTATCTTATCCGGCGC
- binding result [1]: binds

B2: T/P DNA (38-nt template / 25-nt primer) (dsDNA)
DNA 1: CTGCACGAATTAAGCAATTCGTAATCATGGTCATAGCT
DNA 2: AGCTATGACCATGATTACGAATTGC
modifications: primer 3'-terminal dideoxy-C
- binding result [2]: binds

- binding result [3]: binds
B3: S.c. DNA polymerase δ regulatory subunit Pol32 (natural protein, S. cerevisiae)
chain: MDQKASYFINEKLFTEVKPVLFTDLIHHLKIGPSMAKKLMFDYYKQTTNAKYNCVVICCYKDQTIKIIHDLSNIPQQDSIIDCFIYAFNPMDSFIPYYDIIDQKDCLTIKNSYELKVSESSKIIERTKTLEEKSKPLVRPTARSKTTPEETTGRKSKSKDMGLRSTALLAKMKKDRDDKETSRQNELRKRKEENLQKINKQNPEREAQMKELNNLFVEDDLDTEEVNGGSKPNSPKETDSNDKDKNNDDLEDLLETTAEDSLMDVPKIQQTKPSETEHSKEPKSEEEPSSFIDEDGYIVTKRPATSTPPRKPSPVVKRALSSSKKQETPSSNKRLKKQGTLESFFKRKAK
notes: Pol32, regulatory subunit of Saccharomyces cerevisiae DNA polymerase δ; Stood in the assay as part of the three-subunit Pol δ

Binder: B4
- binding result [4]: binds

- binding result [4]: binds
- binding result [5]: binds
B5: S.c. proliferating cell nuclear antigen (PCNA) sliding clamp (natural protein, S. cerevisiae)
chain: MLEAKFEEASLFKRIIDGFKDCVQLVNFQCKEDGIIAQAVDDSRVLLVSLEIGVEAFQEYRCDHPVTLGMDLTSLSKILRCGNNTDTLTLIADNTPDSIILLFEDTKKDRIAEYSLKLMDIDADFLKIEELQYDSTLSLPSSEFSKIVRDLSQLSDSINIMITKETIKFVADGDIGSGSVIIKPFVDMEHPETSIKLEMDQPVDLTFGAKYLLDIIKGSSLSDRVGIRLSSEAPALFQFDLKSGFLQFFLAPKFNDEE
notes: PCNA of Saccharomyces cerevisiae, homotrimeric ring; also called PCNA clamp; PCNA trimer; source: purified
- stoichiometry N [6]: 3
